Experiments:
Conditions in all cases: protein: recombinant; tags: N-terminal His; label: 5'-32P on top strand
CUX1 CR2CR3HD = biological target: T1, CUX1 CR2CR3HD (UniProt P39880 934-1303); assay: EMSA; EMSA: 50 nM bacterially purified protein, 60 ng poly(dI-dC); buffer, salt, pH and temperature by reference to earlier work (not in material)
T1 sequence: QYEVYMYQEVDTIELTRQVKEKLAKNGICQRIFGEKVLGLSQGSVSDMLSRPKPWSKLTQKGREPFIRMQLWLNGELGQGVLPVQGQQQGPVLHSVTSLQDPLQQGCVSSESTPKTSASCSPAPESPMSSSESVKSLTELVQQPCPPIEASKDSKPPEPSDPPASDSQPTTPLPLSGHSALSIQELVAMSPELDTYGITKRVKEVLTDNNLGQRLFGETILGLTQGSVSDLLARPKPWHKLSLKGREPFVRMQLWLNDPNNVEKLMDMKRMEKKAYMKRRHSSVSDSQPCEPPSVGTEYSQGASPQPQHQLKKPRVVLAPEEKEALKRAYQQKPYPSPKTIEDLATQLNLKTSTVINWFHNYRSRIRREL

CUX1 CR1CR2 = biological target: T2, CUX1 CR1CR2 (UniProt P39880 542-1021); assay: as above
T2 sequence: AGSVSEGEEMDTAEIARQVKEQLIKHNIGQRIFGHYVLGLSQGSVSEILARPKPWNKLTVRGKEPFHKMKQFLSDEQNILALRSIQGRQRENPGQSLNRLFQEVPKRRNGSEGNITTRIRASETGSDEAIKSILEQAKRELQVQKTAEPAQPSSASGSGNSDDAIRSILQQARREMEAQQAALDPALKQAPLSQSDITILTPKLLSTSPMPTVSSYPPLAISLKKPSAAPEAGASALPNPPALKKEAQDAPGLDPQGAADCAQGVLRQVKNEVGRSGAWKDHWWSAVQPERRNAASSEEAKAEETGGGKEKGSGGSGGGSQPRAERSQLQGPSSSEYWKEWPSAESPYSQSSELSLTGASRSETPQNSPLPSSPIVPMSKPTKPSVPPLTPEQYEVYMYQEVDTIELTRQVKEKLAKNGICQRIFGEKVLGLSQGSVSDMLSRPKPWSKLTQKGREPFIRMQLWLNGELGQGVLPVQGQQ

CUX1 CR3HD = biological target: T3, CUX1 CR3HD (UniProt P39880 1117-1303); assay: EMSA; complex co-migrates with that of OGG1; EMSA: 50 nM bacterially purified protein, 60 ng poly(dI-dC); buffer, salt, pH and temperature by reference to earlier work (not in material)
T3 sequence: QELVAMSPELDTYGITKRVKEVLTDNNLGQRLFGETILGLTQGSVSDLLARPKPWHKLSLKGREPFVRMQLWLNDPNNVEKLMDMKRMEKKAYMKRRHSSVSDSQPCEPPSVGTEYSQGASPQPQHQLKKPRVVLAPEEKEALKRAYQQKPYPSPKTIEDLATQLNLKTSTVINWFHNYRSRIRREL

Measured: binding result

B1: Probe A, 8-oxoG (dsDNA)
DNA 1: CCGGTGCATGACACTGTGACCTATCCTCAGCG
DNA 2: CGCTGAGGATAGGTCACAGTGTCATGCACCGG
modifications: 8-oxoG at position X of top strand
binds: all assays above

From article PMC4414141, “The function of cux1 in oxidative dna damage repair is needed to prevent premature senescence of mouse embryo fibroblasts”
